These results are taken from patent publication US6759384.

For test [1], the target named is human factor Xa (Enzyme Research Laboratories, Inc.) (human) (UniProt P00742). The test is described as follows: chromogenic FXa inhibition.
Test [2] shares this target. The test is described as follows: cell-based or functional assay.
For test [3] the target is unchanged. The test is described as follows: chromogenic enzyme inhibition, IC50 corrected for substrate.
In test [4] the target is human thrombin (Enzyme Research Laboratories, Inc.) (human) (UniProt P00734). Described as above.

Non-standard residues stand in square brackets, D forms with d. *: point of attachment. Phe(4-NH2) = Nc1ccc(C[C@H](N)C(=O)O)cc1; 2Nal = N[C@@H](Cc1ccc2ccccc2c1)C(=O)O; Hyp = O=C(O)[C@@H]1C[C@@H](O)CN1; Cha = N[C@@H](CC1CCCCC1)C(=O)O; Chg = N[C@H](C(=O)O)C1CCCCC1; Tos = Cc1ccc(S(=O)(=O)*)cc1; Cbz = O=C(OCc1ccccc1)* Bounds are passed on as bounds.

As usually defined, the Ki is a dissociation constant, usually derived from enzyme kinetics or from competition with a known ligand.

Chain of human factor Xa (Enzyme Research Laboratories, Inc.) (human) (P00742 41-179 limits assumed, chain 1 of 2): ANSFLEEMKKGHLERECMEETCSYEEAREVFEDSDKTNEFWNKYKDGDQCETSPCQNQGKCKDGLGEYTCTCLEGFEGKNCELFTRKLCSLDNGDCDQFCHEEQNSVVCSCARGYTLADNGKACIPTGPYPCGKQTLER
Chain of human factor Xa (Enzyme Research Laboratories, Inc.) (human) (P00742 235-488 limits assumed, chain 2 of 2): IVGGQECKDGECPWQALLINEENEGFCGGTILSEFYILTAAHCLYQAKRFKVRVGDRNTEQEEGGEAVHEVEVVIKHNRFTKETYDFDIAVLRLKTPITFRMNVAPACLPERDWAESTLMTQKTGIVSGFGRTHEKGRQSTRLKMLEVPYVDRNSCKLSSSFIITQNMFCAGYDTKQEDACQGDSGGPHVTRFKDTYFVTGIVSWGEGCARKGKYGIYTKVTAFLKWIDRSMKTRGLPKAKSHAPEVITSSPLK

As to “Ac-D-pAph-Chg-Arg-N(carboxymethyl)Gly-Pro-NH2 (peptide)”, in test [1], the Ki was less than 100 µM.
On to Ac-D-pAph-Chg-Arg-NH2 (peptide), for which, in test [1], the Ki was less than 100 µM.
In the case of “Ac-D-pAph-Chg-Arg-N[1(1,3-dicarboxy)propyl)]Gly-Pro-NH2 (peptide)”, the Ki in test [1] is less than 100 µM.
Same read-out and setting: in the case of “Ac-D-pAph-Chg-PalMe(3)-Leu-Pro-NH2 (peptide)” it was less than 100 µM; in that of Ac-F(pNH2)-Chg-R-NH2 (peptide), less than 100 µM.
Same read-out and setting: in the case of “Ac-Nal(2)-Cha-R-D(O-Allyl)-NH2 (peptide)” it was less than 100 µM; in that of Ac-Nal(2)-Chg-R-NH2 (peptide), less than 100 µM.
Substance “Ac-Pal(4)Me-Chg-Arg-Leu-Pro-NH2 (peptide)” gave a Ki in test [1] of less than 100 µM.
Turning to “Ac-Pal(4)Me-Chg-Pal(4)Me-Leu-Pro-NH2 (peptide)”, in test [1], the Ki is less than 100 µM.
With “Ac-Pal(4)Me-Chg-PalMe(3)-Leu-Pro-NH2 (peptide)”, the Ki in test [1] was less than 100 µM.
Still for that read-out and setting: in the case of Ac-Pgl(OH)-I-R-L-NH2 (peptide) it was less than 100 µM; in that of “Ac-Y-Chg-R(NO2)-{ψ(CH2NH)}-L-NH2 (peptide)”, less than 100 µM.
In the case of Ac-Y-Chg-R-NH2 (peptide), the EC50 (concentration giving 50% inhibition of coagulation), in vitro dilute prothrombin time assay, pooled human plasma in test [2] came to 0.0025 µM. The substance also gave an inhibitory constant (Ki) in test [1] of less than 100 µM.
Ac-Y-Chg-R-NH-Bzl-4-OMe (peptide) registered a Ki in test [1] of less than 100 µM.
As to “Ac-Y-Chg-R-NH-CH2(2-(1-Et)pyrrolidinyl) (peptide)”, in test [1], the Ki is less than 100 µM.
The substance “Ac-Y-Chg-R-NH-CH2(2-(6-EtO)benzylthiazolyl) (peptide)” came in with an inhibitory constant (Ki) in test [1] of less than 100 µM.
Ac-Y-Chg-R-NH-CH2-Chx (peptide): the inhibitory constant (Ki) in test [1] is less than 100 µM.
Same read-out and setting: the same measure for Ac-Y-Chg-R-NH-CH2CH2-COOH (peptide): less than 100 µM.
Still for that read-out and setting: in the case of Ac-Y-Chg-R-NH-CH2CH2-N(CH3)4 (peptide) it was less than 100 µM.
Ac-Y-Chg-R-NH-CH2CH2-N-(CH3)2 (peptide): the Ki in test [1] is less than 100 µM.
In test [1], Ac-Y-Chg-R-NH-CH2CH2-O-CH3 (peptide) displayed a Ki of less than 100 µM.
Ac-Y-Chg-R-NH-Chx (peptide) registered a Ki in test [1] of less than 100 µM.
Take Ac-Y-I-PalMe(3)-NH2 (peptide): the Ki in test [1] was less than 100 µM.
Substance “Ac-Y-I-R-L-P-Dab(Ac-Y-I-R-L-P(G-A)3)-OH (peptide)” came in with a Ki in test [1] of less than 100 µM.
“Ac-Y-I-R-L-P-Dab(Ac-Y-I-R-L-P(G-A)6)-OH (peptide)” had a Ki in test [1] of less than 100 µM.
Ac-Y-I-R-N(Me)O-CH3 (peptide) had a Ki in test [1] of less than 100 µM.
Ac-Y-I-R-NH2 (peptide) gave a Ki in test [1] of less than 100 µM.
The same measure, in the same setting: the same measure for Ac-Y-I-R-NH-4-morpholinyl (peptide): less than 100 µM; for Ac-Y-I-R-NH-CH2-4-Pyridyl (peptide): less than 100 µM.
On the same count and under the same terms, in the case of Ac-Y-I-R-NH-CH2CH2-N(CH3)2 (peptide) it was less than 100 µM; in that of Ac-Y-I-R-NH-OCH3 (peptide), less than 100 µM.
Regarding Ac-Y-I-R-Nle-Hyp (peptide), the inhibition constant (Ki) in test [1] is less than 100 µM.
Ac-Y-I-R-Piperidyl (peptide) had a Ki in test [1] of less than 100 µM.
The substance Ac-Y-Nva-R-NH2 (peptide) yielded a Ki in test [1] of less than 100 µM.
On the same count and under the same terms, the same measure for Ac-[2Nal][Cha]RLP-NH2: less than 100 µM.
Turning to Ac-[2Nal][Chg]RLP-NH2, in test [2], the EC50 (concentration giving 50% inhibition of coagulation), in vitro dilute prothrombin time assay, pooled human plasma was determined as 0.14 µM. In addition, in test [1], the inhibition constant Ki is less than 100 µM.
As to Ac-[Phe(4-NH2)][Chg]RL[Hyp]-NH2, the Ki in test [1] was less than 100 µM.
Substance Ac-mAph-Chg-Arg-Leu-Pro-NH2 (peptide) came in with a Ki in test [1] of less than 100 µM.
The substance “Ac-pAph-Cha-PalMe(3)-(Me)Leu-Pro-NH2 (peptide)” returned a Ki in test [1] of less than 100 µM.
On the same count and under the same terms, the same measure for Ac-pAph-Chg-Arg (peptide): less than 100 µM; for “Ac-pAph-Chg-Arg(HOOC-CH2-CH2)Gly-Pro-NH2 (peptide)”: less than 100 µM; for “Ac-pAph-Chg-Arg-(HOOC-CH2)Gly-Pro-NH2 (peptide)”: less than 100 µM.
In test [1], “Ac-pAph-Chg-Arg-Cys(CH2COOH)-Pro-NH2 (peptide)” gave a Ki of less than 100 µM.
The same measure, in the same setting: the same measure for Ac-pAph-Chg-Arg-Gla-Pro-NH2 (peptide): less than 100 µM.
Turning to Ac-pAph-Chg-Arg-Leu-NH2 (peptide), the inhibition constant Ki in test [1] was less than 100 µM.
In turn, Ac-pAph-Chg-Arg-Leu-OH (peptide) came in with a Ki in test [1] of less than 100 µM.
On the same count and under the same terms, in the case of Ac-pAph-Chg-Arg-NH2 (peptide) it was less than 100 µM.
Still for that read-out and setting: in the case of “Ac-pAph-Chg-Arg-N[1(1,3-dicarboxy)propyl)]Gly-Pro-NH2 (peptide)” it was less than 100 µM; in that of “Ac-pAph-Chg-Arg-Pen(CH2COOH)-Pro-NH2 (peptide)”, less than 100 µM; in that of “Ac-pAph-Chg-Dab(CH ═N(CH3)2)-Leu-Pro-NH2 (peptide)”, less than 100 µM.
With “Ac-pAph-Chg-Dap(CH═N(CH3)2)-Leu-Pro-NH2 (peptide)”, the Ki in test [1] is less than 100 µM.
On the same count and under the same terms, the same measure for “Ac-pAph-Chg-NH-1-[3(N-methylpyridyl)]-1-(methylacetate)ethyl (peptide)”: less than 100 µM; for “Ac-pAph-Chg-NH-(4-amidinobenzyl) (peptide)”: less than 100 µM.
On the same count and under the same terms, the same measure for “Ac-pAph-Chg-NH-(4-trimethyl-ammonium benzyl) (peptide)”: less than 100 µM; for “Ac-pAph-Chg-NH-[1-(1-methyl-4-pyridinium)-2-hydroxy]ethyl (peptide)”: less than 100 µM.
In test [1], “Ac-pAph-Chg-NH-[1-(1-methyl-4-pyridinium)ethyl (peptide)” returned a Ki of less than 100 µM.
Still for that read-out and setting: the same measure for “Ac-pAph-Chg-NH[4-(1-methyl-pyridinium)methyl] (peptide)”: less than 100 µM; for “Ac-pAph-Chg-Pal(3)(CH2COOH)-NH2 (peptide)”: less than 100 µM.
In turn, “Ac-pAph-Chg-PalMe(3)-Leu-Pro-NH2 (peptide)” showed a Ki in test [1] of less than 100 µM.
On the same count and under the same terms, in the case of Ac-pAph-Chg-PalMe(3)-NH2 (peptide) it was less than 100 µM; in that of “Ac-pAph-Chg-PalMe(3)-NH(1-methoxycarbonyl)-1-cyclohexyl (peptide)”, less than 100 µM; in that of “Ac-pAph-Chg-PalMe(3)-NH-(1-methoxycarbonyl)-1-cyclopentyl (peptide)”, less than 100 µM.
Turning to “Ac-pAph-Chg-PalMe(3)-NH-(3-thienyl-2-carboxylic acid methyl ester) (peptide)”, the Ki in test [1] was less than 100 µM.
The substance “Ac-pAph-Chg-PalMe(3)-NH-(4-carboxycyclohexyl) methyl (peptide)” gave an inhibitory constant (Ki) in test [1] of less than 100 µM.
Take “Ac-pAph-Chg-PalMe(3)-NH-(4-methoxycarbonyl-cyclohexyl)methyl (peptide)”: the Ki in test [1] was less than 100 µM.
On the same count and under the same terms, the same measure for “Ac-pAph-Chg-PalMe(3)-Pen(CH2COOH)-Pro-NH2 (peptide)”: less than 100 µM.
Substance Ac-pAph-Chg-R-L-P-NH2 (peptide) showed an inhibitory constant (Ki) in test [1] of less than 100 µM.
Same read-out and setting: in the case of Ac-pAph-Pgl-PalMe(3)-NH2 (peptide) it was less than 100 µM; in that of Ac-y-I-R-NH2 (peptide), less than 100 µM; in that of “Alloc-D-pAph-Chg-Arg-Leu-Pro-NH2 (peptide)”, less than 100 µM.
Still for that read-out and setting: in the case of “Alloc-pAph-Chg-NH-[4-(-methylpyridinium)-methyl] (peptide)” it was less than 100 µM; in that of Alloc-pAph-Chg-PalMe(3)-NH2 (peptide), less than 100 µM; in that of “Alloc-pAph-Chg-PalMe(3)-Pen(CH2COOH)-Pro-NH2 (peptide)”, less than 100 µM.
On the same count and under the same terms, the same measure for CF3C(O)-(iBu)Tyr-Chg-Arg-OH (peptide): less than 100 µM.
In turn, Caff-I-R-NH2 (peptide) yielded a Ki in test [1] of less than 100 µM.
The same measure, in the same setting: the same measure for Cbz-I-R-NH2 (peptide): less than 100 µM; for Cbz-Ile-Arg-Leu-NH2: less than 100 µM; for ClCH2CO-Y-I-R-NH2 (peptide): less than 100 µM.
Still for that read-out and setting: in the case of Nal(2)-Cha-R-D(O-Allyl)-NH2 (peptide) it was less than 100 µM.
The same measure, in the same setting: the same measure for “Nal(2)-Cha-R-D(O-Allyl)-Sar-NH2 (peptide)”: less than 100 µM; for Nal(2)-Chg-R-L-P-NH2 (peptide): less than 100 µM; for Pgl(OH)-I-R-L-NH2 (peptide): less than 100 µM.
Turning to Ph-C(NOCH2Ph)-CO-I-R-NH2 (peptide), the inhibition constant (Ki) in test [1] is less than 100 µM.
With “TENSTOP (N-alpha-tosyl-Gly-p-amidinophenylalanine methyl ester)”, the inhibition constant Ki in test [3] and in test [4] was 2 µM each time.
Tfa-(iBu)F(pNH2)-Chg-R-NH2 (peptide) returned a Ki in test [1] of less than 100 µM.
Take Tfa-(iBu)Nal(2)-Chg-R-L-P-NH2 (peptide): the Ki in test [1] is less than 100 µM.
Same read-out and setting: in the case of Tfa-(iBu)Y-Chg-R-NH2 (peptide) it was less than 100 µM.
For the substance Tfa-(iBu)Y-I-PalMe(3)-NH2 (peptide), the inhibitory constant (Ki) in test [1] was less than 100 µM.
In the case of Tfa-(iBu)Y-I-R-NH2 (peptide), in test [1], the Ki was less than 100 µM.
On the same count and under the same terms, the same measure for Tfa-(iBu)Y-I-R-OH (peptide): less than 100 µM; for Tfa-Y-Chg-R-NH2 (peptide): less than 100 µM.
The substance Tos-Tyr-Ile-Arg-NH2 displayed a Ki in test [1] of less than 100 µM.
On to Y-I-R-NH2 (peptide), for which the Ki in test [1] is less than 100 µM.
The same measure, in the same setting: in the case of pAph-Chg-Arg-Leu-Pro-NH2 (peptide) it was less than 100 µM.
Still for that read-out and setting: the same measure for pal-I-R-C(SBut)-Hyp-NH2 (peptide): less than 100 µM.
The same measure, in the same setting: in the case of y-Chg-R-L-NH2 (peptide) it was less than 100 µM; in that of y-Chg-R-NH2 (peptide), less than 100 µM; in that of y-I-R-NH2 (peptide), less than 100 µM.
The substance y-Tle-R-Nle-P-NH2 (peptide) came in with an inhibition constant Ki in test [1] of less than 100 µM.
